Results: publication PMC5567221, “The open architecture of HD-PTP phosphatase provides new insights into the mechanism of regulation of ESCRT function” (Scientific Reports, 2017)

T1: HD-PTP Bro1-CC-PRR (residues 1-738) (UniProt Q9H3S7 1-738)
T1 construct: His Domain Protein Tyrosine Phosphatase (HD-PTP), Bro1 and coiled-coil domains plus the proximal region of the PRR (714-738), residues 1-738; cloned into pET28a (NdeI/XhoI); immobilised by the His6 tag on the HTE chip; also called HD-PTP_(Bro1-CC-PRR (+tag)); source: E. coli BL-21(DE3), purified (Nickel beads, MonoQ anion exchange, Superdex200 SEC); not shown: His6, N-terminal, kept
T1 sequence (looked up): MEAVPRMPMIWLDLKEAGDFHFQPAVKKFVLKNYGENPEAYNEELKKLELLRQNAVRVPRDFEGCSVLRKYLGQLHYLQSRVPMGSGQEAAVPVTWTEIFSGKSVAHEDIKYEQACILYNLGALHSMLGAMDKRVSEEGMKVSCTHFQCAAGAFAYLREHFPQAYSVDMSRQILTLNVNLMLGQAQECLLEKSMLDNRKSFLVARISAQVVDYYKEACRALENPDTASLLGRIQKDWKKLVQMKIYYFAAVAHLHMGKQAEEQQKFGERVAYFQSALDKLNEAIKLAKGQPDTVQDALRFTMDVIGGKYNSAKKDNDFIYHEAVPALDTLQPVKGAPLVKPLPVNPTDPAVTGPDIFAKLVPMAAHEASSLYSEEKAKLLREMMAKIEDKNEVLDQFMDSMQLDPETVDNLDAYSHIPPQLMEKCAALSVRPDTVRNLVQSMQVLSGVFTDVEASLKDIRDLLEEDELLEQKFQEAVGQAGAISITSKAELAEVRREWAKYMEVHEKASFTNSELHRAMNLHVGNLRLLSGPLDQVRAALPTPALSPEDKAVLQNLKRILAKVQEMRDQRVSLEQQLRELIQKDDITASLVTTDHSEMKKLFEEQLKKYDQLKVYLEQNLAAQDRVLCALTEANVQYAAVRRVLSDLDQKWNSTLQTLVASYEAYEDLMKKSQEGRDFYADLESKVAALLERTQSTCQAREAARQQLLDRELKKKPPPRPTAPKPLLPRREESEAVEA

T2: HD-PTP Bro1 domain (residues 1-361) (UniProt Q9H3S7 1-361)
T2 construct: His Domain Protein Tyrosine Phosphatase (HD-PTP), Bro1 domain, residues 1-361; cloned into pNIC-28a-Bsa4; No tag cleavage is described for the His6-tagged proteins; The vector pNIC28-Bsa4 probably adds an N-terminal His6 tag with a TEV site (surmise); also called His Domain Protein Tyrosine Phosphatase Bro1; source: E. coli BL-21(DE3), purified (Nickel beads, MonoQ anion exchange, Superdex200 SEC)
T2 sequence (looked up): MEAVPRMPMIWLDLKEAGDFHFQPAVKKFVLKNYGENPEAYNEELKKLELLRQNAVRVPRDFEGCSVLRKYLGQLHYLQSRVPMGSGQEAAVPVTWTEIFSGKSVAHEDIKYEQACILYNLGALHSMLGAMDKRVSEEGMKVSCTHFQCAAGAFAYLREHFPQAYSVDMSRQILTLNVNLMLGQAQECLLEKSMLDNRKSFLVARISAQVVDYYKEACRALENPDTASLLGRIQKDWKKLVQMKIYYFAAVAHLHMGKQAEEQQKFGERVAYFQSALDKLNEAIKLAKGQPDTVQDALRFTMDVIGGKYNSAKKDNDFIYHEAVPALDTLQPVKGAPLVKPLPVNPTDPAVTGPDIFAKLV


Assays:
Settings in all cases: both partners purified
[1] = target: T1, HD-PTP Bro1-CC-PRR (residues 1-738); experiment: SPR; ProteOn XPR36; His6-tagged HD-PTP Bro1-CC-PRR immobilised on an HTE chip (5000-8000 RU); synthetic peptides as analytes; equilibrium binding model; 25 °C; 10 mM HEPES pH 7.4, 150 mM NaCl, 0.05% Tween-20
[2] = target: T2, HD-PTP Bro1 domain (residues 1-361); experiment: SPR; ProteOn XPR36; GST-FL-CHMP4B captured on a GLC chip derivatised with anti-GST antibody (3000-4000 RU); HD-PTP proteins as analytes; equilibrium binding model; 25 °C; 10 mM HEPES pH 7.4, 150 mM NaCl, 0.05% Tween-20
[3] = target: T1, HD-PTP Bro1-CC-PRR (residues 1-738); experiment: as above

| Kd [1] [µM] | Kd [2] [µM] | Kd [3] [µM] | Binder |
| --- | --- | --- | --- |
| 57.5 ± 3.1 |  |  | SNIKSLSFPKLDSDDSNQKT (UBAP1 (ESCRT-I subunit), central region, residues 261-280; also called central region of UBAP1; source: synthetic peptide (Generon Ltd, UK)) [UBAP1 peptide (residues 261-280)] |
| 30.9 ± 0.2 |  |  | KKKEEEDDDMKELENWAGSM (CHMP4B, C-terminal residues 205-224; also called peptide from the C-terminus of CHMP4B; source: synthetic peptide (Generon Ltd, UK)) [CHMP4B peptide (residues 205-224)] |
|  | 4.88 ± 0.3 | 1.1 ± 0.1 | GST-tagged full length CHMP4B (natural protein, UniProt Q9H444 1-224, looked up, CHMP4B (ESCRT-III subunit), full length; Captured on the chip by an anti-GST antibody; also called FL-CHMP4B; source: E. coli C41, purified (GSTrap FF, glutathione elution)) MSVFGKLFGAGGGKAGKGGPTPQEAIQRLRDTEEMLSKKQEFLEKKIEQELTAAKKHGTKNKRAALQALKRKKRYEKQLAQIDGTLSTIEFQREALENANTNTEVLKNMGYAAKAMKAAHDNMDIDKVDELMQDIADQQELAEEISTAISKPVGFGEEFDEDELMAELEELEQEELDKNLLEISGPETVPLPNVPSIALPSKPAKKKEEEDDDMKELENWAGSM |
